Measured values published in patent publication US20230399361A1, “MACROCYCLIC PEPTIDES” (UNIVERSITY OF NOTRE DAME DU LAC, priority 2022, published 2023).
*1 amine or outer side, *2 acyl side, *3 side chain or, on linkers, in order; H or OH if unused. Where a SMILES comes first, the peptide text is derived from it. Primed or numbered codes have the meaning given here. [ ]: non-standard residue; d: D form. aTyr = Tyr with an NH2 on the backbone amide nitrogen (N-amino residue), NN([C@@H](Cc1ccc(O[*:3])cc1)C(=O)[*:2])[*:1]; aIle″ = Ile with an NH2 on the backbone amide nitrogen (N-amino residue), CC[C@H](C)[C@@H](C(=O)[*:2])N(N)[*:1]; aVal″ = Val with an NH2 on the backbone amide nitrogen (N-amino residue), CC(C)[C@@H](C(=O)[*:2])N(N)[*:1]; N(NH2)Lys = NCCCC[C@H](NN)C(=O)O

Assays:
[1] = Human serum stability assay; conditions: after 24 h, 37° C., HPLC
Procedure: Human Serum Stability Assay. The stability of NAPs in 25% human serum (MilliporeSigma) was assessed by HPLC. The reaction was started by adding NAPs at a final concentration of 500 μM in pre-warmed serum. The mixture was incubated at 37° C. for 24 h. A 100 μL aliquot of the reaction mixture was taken out at 0, 1, 4, and 24 h and was mixed with an equal volume of 20% trichloroacetic acid and incubated at 4° C. for 15 min to precipitate serum proteins. After centrifugation at 12,000 rpm for 10 min, the supernatant was collected and mixed with an internal standard (1 mg/mL Cbz-Tyr-OH dissolved in MeCN) and stored at −20° C. Samples were then analyzed by LC-MS, and the percentage of peptide remaining was calculated by integrating peaks.

[2] = target: T1, AcPHF6 (Homo sapiens, UniProt P10636); conditions: Chem. Eur. J. 2017, 23, 9618; cited from earlier work
T1 construct: AcPHF6; Ac-Val-Gln-Ile-Val-Tyr-Lys-NH2; 790.4833

[3] = target: T2, tauP301L (Homo sapiens, UniProt P10636, P618L); experiment: ThT fluorescence aggregation assay of recombinant tauP301L; type: biochemical; conditions: 20 μM NAP (2-fold molar excess), 10 μM tauP301L, heparin, 48 h
T2 construct: we expressed and purified full-length tau featuring a P301L mutation; His6 (N); made in house; host or cells: E. coli BL21 (DE3)
Text: (§1) NAP Tau Mimics Inhibit Tau Fibrilization In Vitro. We chose thioflavin T (ThT), an amyloid specific fluorescent dye that binds to β-sheet assemblies, to first evaluate the effect of NAPs on recombinant tau aggregation. For these studies, we expressed and purified full-length tau featuring a P301L mutation frequently observed in patients with frontotemporal dementia and Parkinsonism linked to chromosome 17 (FTDP-17). This missense mutation leads to local structure destabilization around the amyloid-forming region resulting in faster aggregation. Recombinant tauP301L aggregated in the presence of equimolar heparin sulfate (t1/2=6.5±0.4 h) starting with a very short 0.5 h lag phase, followed by a 24 h exponential growth phase. […] Compounds 2 and 4 are mono- and diaminated hexapeptides derived from the R2 PHF6* aggregation-prone sequence, whereas compounds 5, 6, 12, and 13 are all derived from the R3 PHF6 sequence. Several other NAPs had no effect on endpoint ThT fluorescence or lacked consistent inhibition across repeated experiments. […] NaOAc buffer, as evidenced by intense ThT fluorescence after 48 h (FIG. 1B).
Inhibition of full-length tau aggregation by mxyl-NAPs in a ThT assay. […] TauP301L ([…]) aggregated upon incubation with heparin over the course of 2 days, leading to high ThT fluorescence. […] We also synthesized linear and scrambled controls corresponding to each of the NAP inhibitors.
ThT Fluorescence Aggregation Assay. Recombinant tauP301L (10 μM final concentration) and NAP inhibitors (20 μM final concentration) were mixed in an aggregation buffer (100 mM sodium acetate, 10 μM ThT, 10 μM heparin, 2 mM DTT, and 0.5% DMSO, pH: 7.4) in a 96-well clear bottom black plate with a final reaction volume of 200 μL. The plate was then sealed with a clear sealing film and allowed to incubate at 37° C. with continuous shaking in a Biotek Synergy H1 microplate reader. An automated method was used to carry out ThT fluorescence measurements at an excitation wavelength of 444 nm and an emission wavelength of 485 nm at an interval of every 5 min for 48 h. Experiments were carried out in technical replicates on at least 2 different days. Every experiment included control wells that lacked tauP301L, heparin, or NAPs. The average signal from control wells lacking tau was used to subtract the background fluorescence, and the average of the first and last 10 data points of tau+heparin (no inhibitor) wells, after blank subtraction, was used to normalize the data. All data plots were generated with SigmaPlot.

[4] = Self-aggregation of peptides alone by ThT fluorescence; type: physicochemical; conditions: incubated alone in aq. NaOAc buffer, 48 h
Text: as §1
Design and synthesis of aggregation-resistant backbone-aminated derivatives of mxyl-AD. The data above support the hypothesis that mxyl-AD mimetic macrocycle can engage in native-like hydrophobic cross-b interactions as well as edge-to-edge H-bonds along the fibril axis. We next sought to employ mxyl-AD as a template for the design of tau seeding inhibitors that could potentially cap fibril growth and block propagation. This required us to incorporate a chemical modification onto mxyl-AD that would preclude its ability to self-assemble without disrupting its capacity to adopt the conformation required to bind tau. We therefore designed two backbone N-amino peptide (NAP) derivatives of our tau mimic, mxyl-NAP1 and mxyl-NAP2 (Scheme 1). Each of these analogues features a backbone amide substitution that precludes canonical b-sheet H-bonding along one edge of the macrocycle, while leaving the other edge intact to engage the tau protein. […] Both mxyl-NAP1 and mxyl-NAP2, which feature a single backbone N-amino group within the amyloidogenic PHF6 module, were prepared on solid support starting from Fmoc-protected N-amino dipeptides.

[5] = target: T2, tauP301L; experiment: Transmission electron microscopy of heparin-induced tauP301L fibrils; type: biochemical; conditions: 10 μM tauP301L + heparin, 20 μM NAP (2-fold molar excess), 96 h
Procedure: This is consistent with previous reports showing that the endpoint ThT fluorescence and fibrilization lag time for full-length tau are particularly resistant to perturbation by inhibitors. […] To confirm the effect of NAPs on the growth of mature tau fibrils, we used transmission electron microscopy (TEM) to visualize the morphology and maturity of fibrillar species. Heparin-induced tauP301L fibrils were allowed to grow over 96 h in the presence or absence of inhibitors. Untreated tauP301L afforded large, helical, and amyloid-like filamentous fibrils.
Inhibition of full-length tau fibrilization by mxyl-NAPs in TEM. To confirm the results from ThT assays, we used TEM to visualize tauP301L fibrils in the absence or presence of synthesized NAPs. As expected, heparin-induced tauP301L formed dense networks of mature fibrils (FIG. 8).
Transmission Electron Microscopy. For analyzing fibrils by TEM, aggregation was carried out under conditions similar to the assay performed above but with ThT excluded and a final reaction volume of 100 μL. Samples were incubated in a microcentrifuge tube for 4 days at 37° C. with a mixing speed of 100 rpm. A 10 μL aliquot of the sample was then applied to 400-meshed formvar-/carbon-coated copper grids and negative-stained with 2% uranyl acetate. Micrographs were obtained on a JEOL 2011 transmission electron microscope at 200 kV.

[6] = target: Human tauP301L (0N4R) with an N-terminal His6 tag (human), P10636; experiment: cell-based or functional assay
Human tauP301L (0N4R) with an N-terminal His6 tag (human), P10636, sequence (P10636 other isoform, or with tags, fused parts or gaps): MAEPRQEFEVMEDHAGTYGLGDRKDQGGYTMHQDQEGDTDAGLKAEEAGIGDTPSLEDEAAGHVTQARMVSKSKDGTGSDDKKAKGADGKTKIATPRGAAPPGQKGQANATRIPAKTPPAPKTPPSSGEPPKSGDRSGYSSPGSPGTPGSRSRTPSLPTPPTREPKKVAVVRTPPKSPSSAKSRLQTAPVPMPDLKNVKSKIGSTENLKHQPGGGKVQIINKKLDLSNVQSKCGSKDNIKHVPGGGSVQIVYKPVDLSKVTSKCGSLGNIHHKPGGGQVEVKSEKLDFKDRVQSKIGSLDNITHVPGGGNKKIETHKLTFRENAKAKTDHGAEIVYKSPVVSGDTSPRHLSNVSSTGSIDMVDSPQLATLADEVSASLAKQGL

T2 sequence (P10636 1-383 isoform P10636-6 P243L): as the sequence (P10636 other isoform, or with tags, fused parts or gaps) above, with P243L counted along it

| Molecule | endpoint ThT fluorescence of tauP301L [3] | tauP301L fibril morphology by TEM [5] | self-aggregation, ThT fluorescence of peptide alone [4] | other results |
| --- | --- | --- | --- | --- |
| CC[C@H](C)[C@H](NC(=O)[C@@H](N)CC(C)C)C(=O)N[C@H](C(=O)N[C@@H](CCCNC(=N)N)C(=O)N[C@@H](CC(C)C)C(=O)N[C@@H](CCC(=O)O)C(=O)N[C@@H](CC(N)=O)C(=O)N[C@H](C(N)=O)[C@@H](C)O)[C@@H](C)O [H-LITRLENT-NH2] (H-LITRLENT-NH2) | – | – | – | intact peptide in 25% human serum [1]: rapidly degraded |
| Ac-VPIVYK-NH2 [proline-containing analogue of PHF6 from the literature (Segal and co-workers)] | – | – | – | aggregation of AcPHF6 in vitro [2]: inhibits the aggregation |
| Ac-VQI[aVal″]Y[N(NH2)Lys]-NH2 [Ac-Val-Gln-Ile-aVal-Tyr-aLys-NH2 (13)] | – | – | – | fibril capping IC50 in cells (seeding of tau-RD(LM)-YFP in HEK293 biosensor cells by pre-formed tauP301L fibrils) [6]: 5 µM |
| Ac-VQ[aIle″]V[aTyr]K-NH2 [Ac-Val-Gln-aIle-Val-aTyr-Lys-NH2 (12)] | – | – | – | fibril capping IC50 in cells (seeding of tau-RD(LM)-YFP in HEK293 biosensor cells by pre-formed tauP301L fibrils) [6]: 5 µM |

Now from value to molecule, other results behind:

| endpoint ThT fluorescence of tauP301L [3] | tauP301L fibril morphology by TEM [5] | Molecule | self-aggregation, ThT fluorescence of peptide alone [4] | other results |
| --- | --- | --- | --- | --- |
| significantly reduce | short, immature rod-like fibrils | Ac-Val-Gln-aIle-Ile-Asn-Lys-NH2 (Ac-VQ[aIle″]INK-NH2) [Compound 2] | no such fluorescence | – |
| significantly reduce | short, immature rod-like fibrils | Ac-Val-Gln-aIle-Val-Tyr-Lys-NH2 (Ac-VQ[aIle″]VYK-NH2) [Compound 6] | no such fluorescence | – |
| significantly reduce | short, immature rod-like fibrils | Ac-aVal-Gln-Ile-Val-Tyr-Lys-NH2 (Ac-[aVal″]QIVYK-NH2) [Compound 5] | no such fluorescence | – |
